Experimental data: US20100178280

T1: acetylated p53 peptides (p53-382/diAc), P04637
T1 chain: RHKK

B1: recombinant mouse Sirt7 protein (protein)
chain: MAAGGGLSRSERKAAERVRRLREEQQRERLRQVSRILRKAAAERSAEEGRLLAESEDLVTELQGRSRRREGLKRRQEEVCDDPEELRRKVRELAGAVRSARHLVVYTGAGISTAASIPDYRGPNGVWTLLQKGRPVSAADLSEAEPTLTHMSITRLHEQKLVQHVVSQNCDGLHLRSGLPRTAISELHGNMYIEVCTSCIPNREYVRVFDVTERTALHRHLTGRTCHKCGTQLRDTIVHFGERGTLGQPLNWEAATEAASKADTILCLGSSLKVLKKYPRLWCMTKPPSRRPKLYIVNLQWTPKDDWAALKLHGKCDDVMQLLMNELGLEIPVYNRWQDPIFSLATPLRAGEEGSHSRKSLCRSREEAPPGDQSDPLASAPPILGGWFGRGCAKRAKRKKVA
B2: recombinant mouse Sirt1 protein (protein)
chain: MADEVALALQAAGSPSAAAAMEAASQPADEPLRKRPRRDGPGLGRSPGEPSAAVAPAAAGCEAASAAAPAALWREAAGAAASAEREAPATAVAGDGDNGSGLRREPRAADDFDDDEGEEEDEAAAAAAAAAIGYRDNLLLTDGLLTNGFHSCESDDDDRTSHASSSDWTPRPRIGPYTFVQQHLMIGTDPRTILKDLLPETIPPPELDDMTLWQIVINILSEPPKRKKRKDINTIEDAVKLLQECKKIIVLTGAGVSVSCGIPDFRSRDGIYARLAVDFPDLPDPQAMFDIEYFRKDPRPFFKFAKEIYPGQFQPSLCHKFIALSDKEGKLLRNYTQNIDTLEQVAGIQRILQCHGSFATASCLICKYKVDCEAVRGDIFNQVVPRCPRCPADEPLAIMKPEIVFFGENLPEQFHRAMKYDKDEVDLLIVIGSSLKVRPVALIPSSIPHEVPQILINREPLPHLHFDVELLGDCDVIINELCHRLGGEYAKLCCNPVKLSEITEKPPRPQKELVHLSELPPTPLHISEDSSSPERTVPQDSSVIATLVDQATNNNVNDLEVSESSCVEEKPQEVQTSRNVENINVENPDFKAVGSSTADKNERTSVAETVRKCWPNRLAKEQISKRLEGNQYLFVPPNRYIFHGAEVYSDSEDDVLSSSSCGSNSDSGTCQSPSLEEPLEDESEIEEFYNGLEDDTERPECAGGSGFGADGGDQEVVNEAIATRQELTDVNYPSDKS

Molecular target: T1, acetylated p53 peptides (p53-382/diAc), …

Row | Protein | deacetylation of acetylated p53 peptides in vitro (fluorometric deacetylation assay) | deacetylation of p53 peptides in vitro (fluorometric deacetylation assay)
1 | B1 | p53 acetylated peptides were efficiently deacetylated by Sirt7 in vitro | Sirt7 and Sirt1 deacetylate p53 peptides in vitro
2 | B2 |  | Sirt7 and Sirt1 deacetylate p53 peptides in vitro
